Values joined by “and” are separate entries in the source; they are usually repeats but may differ in a detail not shown here. Equal entries are not always repeated.
Conditions: Geobacillus stearothermophilus, whole UniProt chain shown
[1] = pH 5.4, 25 °C, Thermal, CD, acetate 20 mM, NaCl 100 mM, reversible: yes
[2] = pH 5.4, 25 °C, Urea, CD, acetate 20 mM, NaCl 100 mM, reversible: yes
[3] = pH 5.4, 25.15 °C, Urea, CD, sodium acetate 10 mM, Nacl 100 mM
[4] = pH 5.4, Thermal, CD, acetate 20 mM, NaCl 100 mM, reversible: yes
[5] = pH 5.45, 10 °C, GdnHCl, CD, sodium acetate,sodium sulfate
[6] = pH 5.45, 25 °C, Urea, CD, Sodium phosphate 20 mM, NaCl 100 mM, reversible: Yes
[7] = pH 5.45, 25 °C, Urea, CD, sodium phosphate 10 mM, NaCl 100 mM, reversible: Yes
[8] = pH 5.45, 25 °C, Urea, CD, sodium phosphate 20 mM, sodium chloride 100 mM, reversible: yes
[9] = pH 5.45, 25 °C, Urea, Fluorescence, Sodium phosphate 20 mM, NaCl 100 mM, reversible: Yes
[10] = pH 5.5, 25 °C, Urea, CD, NaAc 20 mM, NaCl 100 mM
[11] = pH 5.5, 25 °C, Urea, CD, Sodium phosphate 20 mM, NaCl 100 mM
[12] = pH 8, 25 °C, GdnHCl, CD, Tris-HCl 20 mM, sodium chloride 100 mM, reversible: yes
[13] = pH 8, 25 °C, Urea, CD, Sodium phosphate 20 mM, NaCl 100 mM, reversible: Yes
[14] = pH 8, 25 °C, Urea, CD, sodium phosphate 20 mM, sodium chloride 100 mM, reversible: yes
[15] = pH 8, 25 °C, Urea, Fluorescence, Sodium phosphate 20 mM, NaCl 100 mM, reversible: Yes

B1: Large ribosomal subunit protein bL9 wild type, P02417 (protein)
chain: MKVIFLKDVKGKGKKGEIKNVADGYANNFLFKQGLAIEATPANLKALEAQKQKEQRQAAEELANAKKLKEQLEKLTVTIPAKAGEGGRLFGSITSKQIAESLQAQHGLKLDKRKIELADAIRALGYTNVPVKLHPEVTATLKVHVTEQK
Question: Which unfolding free energy (pH 5.4, 25 °C, GdnHCl, CD, phosphate 10 mM, NaCl 100 mM, reversible: yes) does the source give for B1 here?
Answer: 2.1 kcal/mol

Question: And the “heat capacity change of unfolding” value [1]?
Answer: 0.38 kcal/mol/K

Question: And the unfolding free energy [1]?
Answer: 2.18 kcal/mol

Question: What about the denaturant m value [2] of the same protein?
Answer: 0.48 kcal/mol/M

Question: And the “denaturant midpoint (higher = more stable)” value [2]?
Answer: 3.96 M

Question: And the unfolding free energy [2]?
Answer: 1.9 kcal/mol

Question: And the denaturant m value [3]?
Answer: 0.66 kcal/mol/M

Question: And the “denaturant midpoint (higher = more stable)” value [3]?
Answer: 6.5 M

Question: What about the unfolding free energy [3] of the same protein?
Answer: 4.3 kcal/mol

Question: What about the Tm [4] of the same protein?
Answer: 65.3 °C

Question: And the “heat capacity change of unfolding” value [4]?
Answer: 0.38 kcal/mol/K

Question: And the “unfolding enthalpy (van 't Hoff)” value [4]?
Answer: 26.3 kcal/mol

Question: What about the denaturant m value [5] of the same protein?
Answer: 1.52 kcal/mol/M

Question: And the unfolding free energy [5]?
Answer: 6.02 kcal/mol

Question: What about the unfolding free energy (pH 5.45, 25 °C, Thermal, CD, Sodium phosphate 20 mM, NaCl 100 mM, reversible: Yes (>90%)) of the same protein?
Answer: 3.82 kcal/mol

Question: And the denaturant m value [6]?
Answer: 1.32 kcal/mol/M

Question: And the unfolding free energy [6]?
Answer: 3.32 kcal/mol

Question: What about the denaturant m value [7] of the same protein?
Answer: 0.66 kcal/mol/M

Question: What about the unfolding free energy [7] of the same protein?
Answer: 4.17 kcal/mol

Question: What about the denaturant m value [8] of the same protein?
Answer: 1.21 kcal/mol/M

Question: What about the unfolding free energy [8] of the same protein?
Answer: 3.91 kcal/mol

Question: And the denaturant m value [9]?
Answer: 1.24 kcal/mol/M

Question: And the unfolding free energy [9]?
Answer: 3.84 kcal/mol

Question: And the denaturant m value [10]?
Answer: 0.66 kcal/mol/M

Question: And the unfolding free energy [10]?
Answer: 4.3 kcal/mol and 5.85 kcal/mol

Question: And the denaturant m value [11]?
Answer: 0.66 kcal/mol/M

Question: What about the unfolding free energy [11] of the same protein?
Answer: 4.3 kcal/mol

Question: What about the Tm (pH 7.4, Thermal, CD, Tris 10 mM, NaCl 100 mM, reversible: yes(95-100%)) of the same protein?
Answer: 77 °C

Question: And the denaturant m value [12]?
Answer: 2.24 kcal/mol/M

Question: And the unfolding free energy [12]?
Answer: 5.9 kcal/mol

Question: What about the denaturant m value [13] of the same protein?
Answer: 1.02 kcal/mol/M

Question: And the unfolding free energy [13]?
Answer: 6.45 kcal/mol

Question: What about the denaturant m value [14] of the same protein?
Answer: 1.02 kcal/mol/M

Question: What about the unfolding free energy [14] of the same protein?
Answer: 6.38 kcal/mol

Question: What about the denaturant m value [15] of the same protein?
Answer: 1.05 kcal/mol/M

Question: What about the unfolding free energy [15] of the same protein?
Answer: 6.49 kcal/mol

Question: And the unfolding free energy (pH 8, Thermal, CD, Sodium phosphate 20 mM, NaCl 100 mM, reversible: Yes (>90%))?
Answer: 5.77 kcal/mol

B2: Phosphoglycerate kinase wild type, P18912 (protein)
chain: MNKKTIRDVDVRGKRVFCRVDFNVPMEQGAITDDTRIRAALPTIRYLIEHGAKVILASHLGRPKGKVVEELRLDAVAKRLGELLERPVAKTNEAVGDEVKAAVDRLNEGDVLLLENVRFYPGEEKNDPELAKAFAELADLYVNDAFGAAHRAHASTEGIAHYLPAVAGFLMEKELEVLGKALSNPDRPFTAIIGGAKVKDKIGVIDNLLEKVDNLIIGGGLAYTFVKALGHDVGKSLLEEDKIELAKSFMEKAKEKGVRFYMPVDVVVADRFANDANTKVVPIDAIPADWSALDIGPKTRELYRDVIRESKLVVWNGPMGVFEMDAFAHGTKAIAEALAEALDTYSVIGGGDSAAAVEKFGLADKMDHISTGGGASLEFMEGKQLPGVVALEDK
Question: Which results are given for B2?
Answer: unfolding free energy (pH 7.2, 25 °C, GdnHCl, Fluorescence, TEA 50 mM, reversible: no): 13.2 kcal/mol and 9.3 kcal/mol; unfolding free energy (pH 7.2, 25 °C, GdnHCl, Fluorescence, tri-ethanolamine 50 mM, reversible: Yes): 8.76 kcal/mol
